Data reported in article PMC5291697.

Molecular target: Ncore-MoRE (MeV N with MoRE relocated from Ntail to Ncore position 138) (measles virus (MeV-Edm strain))
Test: co-IP

B1: standard measles virus (MeV) phosphoprotein P, full length (natural protein)
chain: MATLLRSLALFKRNKDKPPITSGSGGAIRGIKHIIIVPIPGDSSITTRSRLLDRLVRLIGNPDVSGPKLTGALIGILSLFVESPGQLIQRITDDPDVSIRLLEVVQSDQSQSGLTFASRGTNMEDEADQYFSHDDPISSDQSRFGWFENKEISDIEVQDPEGFNMILGTILAQIWVLLAKAVTAPDTAADSELRRWIKYTQQRRVVGEFRLERKWLDVVRNRIAEDLSLRRFMVALILDIKRTPGNKPRIAEMICDIDTYIVEAGLASFILTIKFGIETMYPALGLHEFAGELSTLESLMNLYQQMGETAPYMVILENSIQNKFSAGSYPLLWSYAMGVGVELENSMGGLNFGRSYFDPAYFRLGQEMVRRSAGKVSSTLASELGITAEDARLVSEIAMHTTEDKISRAVGPRQAQVSFLHGDQSENELPRLGGKEDRRVKQSRGEARESYRETGPSRASDARAAHLPTGTPLDIDTASESSQDPQDSRRSADALLRLQAMAGISEEQGSDTDTPIVYNDRNLLD
Question: Which coprecipitation efficiency relative to standard N (% of standard N) does the source give for B1 here?
Answer: 75
